Experimental data from patent US20260207718.

Target: cation-independent mannose-6-phosphate receptor (CIMPR) on fibroblast cells (UniProt P11717)
Sequence (P11717 41-2491): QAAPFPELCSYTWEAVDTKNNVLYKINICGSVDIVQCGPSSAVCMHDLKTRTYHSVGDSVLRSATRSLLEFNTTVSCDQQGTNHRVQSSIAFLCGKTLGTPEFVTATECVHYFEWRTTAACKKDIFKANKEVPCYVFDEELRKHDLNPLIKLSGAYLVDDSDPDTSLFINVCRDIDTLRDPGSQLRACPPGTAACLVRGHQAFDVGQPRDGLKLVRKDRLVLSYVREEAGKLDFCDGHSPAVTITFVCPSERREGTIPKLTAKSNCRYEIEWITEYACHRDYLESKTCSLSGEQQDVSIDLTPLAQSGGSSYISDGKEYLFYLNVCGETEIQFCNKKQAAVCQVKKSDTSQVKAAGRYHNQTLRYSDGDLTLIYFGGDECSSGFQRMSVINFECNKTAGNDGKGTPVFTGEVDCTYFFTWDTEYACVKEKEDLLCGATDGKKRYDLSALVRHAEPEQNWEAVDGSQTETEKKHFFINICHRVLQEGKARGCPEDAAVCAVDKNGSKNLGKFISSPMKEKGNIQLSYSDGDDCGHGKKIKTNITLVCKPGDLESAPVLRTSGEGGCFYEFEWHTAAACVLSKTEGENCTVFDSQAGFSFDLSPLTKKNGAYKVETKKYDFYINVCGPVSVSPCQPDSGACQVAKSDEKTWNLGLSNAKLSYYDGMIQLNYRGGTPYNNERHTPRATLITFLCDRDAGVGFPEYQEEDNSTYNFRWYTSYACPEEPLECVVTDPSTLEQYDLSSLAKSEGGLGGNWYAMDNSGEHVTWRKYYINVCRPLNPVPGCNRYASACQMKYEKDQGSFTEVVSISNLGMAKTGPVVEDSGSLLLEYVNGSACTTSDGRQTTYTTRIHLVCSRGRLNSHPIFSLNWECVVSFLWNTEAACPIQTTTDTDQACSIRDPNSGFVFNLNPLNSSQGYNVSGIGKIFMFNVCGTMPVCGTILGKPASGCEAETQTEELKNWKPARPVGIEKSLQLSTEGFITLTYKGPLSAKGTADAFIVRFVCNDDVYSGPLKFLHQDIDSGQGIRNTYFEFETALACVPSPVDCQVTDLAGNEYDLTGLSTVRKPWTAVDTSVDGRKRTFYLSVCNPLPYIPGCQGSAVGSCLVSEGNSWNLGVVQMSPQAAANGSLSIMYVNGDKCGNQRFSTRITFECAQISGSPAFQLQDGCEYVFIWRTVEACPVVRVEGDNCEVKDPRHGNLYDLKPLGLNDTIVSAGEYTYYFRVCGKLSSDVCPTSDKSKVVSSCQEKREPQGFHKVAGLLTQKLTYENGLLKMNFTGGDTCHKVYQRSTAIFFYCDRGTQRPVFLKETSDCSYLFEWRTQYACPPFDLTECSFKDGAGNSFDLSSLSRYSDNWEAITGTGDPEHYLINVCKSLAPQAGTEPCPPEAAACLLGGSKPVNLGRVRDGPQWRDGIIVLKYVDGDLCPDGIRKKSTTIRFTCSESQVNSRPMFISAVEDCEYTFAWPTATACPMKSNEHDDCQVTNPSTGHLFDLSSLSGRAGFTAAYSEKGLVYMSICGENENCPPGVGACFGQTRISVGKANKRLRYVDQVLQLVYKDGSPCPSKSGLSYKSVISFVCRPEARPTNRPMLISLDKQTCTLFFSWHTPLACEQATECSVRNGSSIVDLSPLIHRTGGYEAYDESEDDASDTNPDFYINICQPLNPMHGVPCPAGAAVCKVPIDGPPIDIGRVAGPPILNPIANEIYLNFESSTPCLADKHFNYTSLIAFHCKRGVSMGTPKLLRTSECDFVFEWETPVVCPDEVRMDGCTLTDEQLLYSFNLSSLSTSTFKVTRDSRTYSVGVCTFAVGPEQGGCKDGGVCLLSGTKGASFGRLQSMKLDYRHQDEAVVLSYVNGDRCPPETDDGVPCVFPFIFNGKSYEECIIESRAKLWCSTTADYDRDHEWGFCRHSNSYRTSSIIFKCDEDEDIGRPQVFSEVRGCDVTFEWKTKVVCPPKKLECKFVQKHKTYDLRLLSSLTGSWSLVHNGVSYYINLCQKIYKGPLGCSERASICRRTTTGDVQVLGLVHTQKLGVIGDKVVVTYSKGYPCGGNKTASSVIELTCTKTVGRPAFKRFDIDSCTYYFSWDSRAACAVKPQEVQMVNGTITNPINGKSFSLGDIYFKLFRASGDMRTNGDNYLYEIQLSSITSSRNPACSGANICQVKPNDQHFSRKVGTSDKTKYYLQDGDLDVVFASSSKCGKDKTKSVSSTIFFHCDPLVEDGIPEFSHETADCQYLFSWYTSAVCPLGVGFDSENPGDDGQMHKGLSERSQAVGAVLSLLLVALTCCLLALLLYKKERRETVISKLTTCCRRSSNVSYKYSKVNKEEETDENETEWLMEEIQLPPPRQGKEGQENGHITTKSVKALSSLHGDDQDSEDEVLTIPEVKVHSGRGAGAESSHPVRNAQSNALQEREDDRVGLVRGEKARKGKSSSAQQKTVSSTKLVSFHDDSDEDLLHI

Substance | stated: internalized (GAA activity inside CRL 2076 normal fibroblasts) | stated: internalized (GAA activity inside PM25 Pompe fibroblasts)
ATB200 recombinant human acid α-glucosidase (rhGAA) | The curve labelled ATB200 rises steeply from 0 to about 33 nmol/mg protein/hr at about 25 nM. It then stays on a plateau of about 34 up to about 240 nM. The +M6P point (triangle) at about 240 nM lies at about 5, near the zero line. | The curve labelled ATB200 rises steeply from 0 to about 30 at about 10 nM and about 36 at about 27 nM. The fitted plateau is about 41 nmol/mg protein/hr from about 80 nM. The last point, at about 240 nM, is about 45. The +M6P points at about 245 nM lie at about 1-4, near the zero line.
LUMIZYME® (alglucosidase alfa, conventional rhGAA product) | The curve labelled Alglucosidase Alfa rises gradually from 0: about 8 at about 10 nM, about 16 at about 27 nM and about 23 at about 80 nM. It reaches about 35 nmol/mg protein/hr at about 240 nM, where it meets the ATB200 curve. The +M6P point (square) at about 240 nM lies at about 1, on the zero lin | The curve labelled Alglucosidase Alfa rises gradually from 0: about 7 at about 10 nM, about 13 at about 27 nM and about 26 at about 80 nM. It reaches about 37 nmol/mg protein/hr at about 240 nM and stays below the ATB200 curve throughout. The +M6P points at about 245 nM lie at about 1-4, near the ze
